Test results: patent publication US20240301385, “DNA MODIFYING ENZYMES AND ACTIVE FRAGMENTS AND VARIANTS THEREOF AND METHODS OF USE” (LIFEEDIT THERAPEUTICS, INC., published 2024)

T1: APG09980.1-L16-nAPG07433.1 (truncated deaminase) (synthetic)
T1 chain: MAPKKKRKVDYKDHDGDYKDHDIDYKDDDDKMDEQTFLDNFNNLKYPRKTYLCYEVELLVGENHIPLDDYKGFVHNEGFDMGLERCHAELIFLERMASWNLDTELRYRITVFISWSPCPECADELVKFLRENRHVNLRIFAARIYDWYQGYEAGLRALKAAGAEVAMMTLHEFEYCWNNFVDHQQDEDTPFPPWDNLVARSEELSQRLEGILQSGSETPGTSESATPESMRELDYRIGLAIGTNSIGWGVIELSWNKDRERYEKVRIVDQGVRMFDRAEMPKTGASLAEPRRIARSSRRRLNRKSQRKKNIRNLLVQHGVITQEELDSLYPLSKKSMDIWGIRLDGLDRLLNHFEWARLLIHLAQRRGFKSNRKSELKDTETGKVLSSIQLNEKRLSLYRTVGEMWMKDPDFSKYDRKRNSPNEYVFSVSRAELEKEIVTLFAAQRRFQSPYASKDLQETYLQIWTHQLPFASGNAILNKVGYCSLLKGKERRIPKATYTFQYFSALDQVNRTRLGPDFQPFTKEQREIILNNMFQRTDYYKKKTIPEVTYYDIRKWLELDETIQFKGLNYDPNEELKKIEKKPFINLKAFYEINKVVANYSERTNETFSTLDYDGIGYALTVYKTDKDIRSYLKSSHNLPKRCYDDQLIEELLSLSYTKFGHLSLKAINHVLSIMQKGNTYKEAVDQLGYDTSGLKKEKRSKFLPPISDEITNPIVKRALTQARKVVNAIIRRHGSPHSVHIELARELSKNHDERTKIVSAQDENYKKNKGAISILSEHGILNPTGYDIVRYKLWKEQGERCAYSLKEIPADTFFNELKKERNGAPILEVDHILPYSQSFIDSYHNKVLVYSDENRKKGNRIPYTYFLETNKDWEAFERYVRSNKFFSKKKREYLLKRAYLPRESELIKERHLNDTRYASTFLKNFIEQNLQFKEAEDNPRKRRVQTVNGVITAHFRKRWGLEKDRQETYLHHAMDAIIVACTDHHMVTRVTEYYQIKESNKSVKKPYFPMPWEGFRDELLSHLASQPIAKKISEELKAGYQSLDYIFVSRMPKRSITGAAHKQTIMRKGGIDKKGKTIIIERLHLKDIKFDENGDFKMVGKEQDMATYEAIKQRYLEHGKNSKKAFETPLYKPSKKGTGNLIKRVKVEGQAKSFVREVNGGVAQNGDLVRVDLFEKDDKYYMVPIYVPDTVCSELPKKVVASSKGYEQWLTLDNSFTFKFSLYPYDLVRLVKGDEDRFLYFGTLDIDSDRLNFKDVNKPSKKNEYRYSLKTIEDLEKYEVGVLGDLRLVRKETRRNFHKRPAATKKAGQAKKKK

B1: SGN000169 sgRNA ; SGN000169 target (ssRNA ; dsDNA)
RNA: CACAUCUCGAGCAAGACGUUGUCAUAGUUCCAUUAAAGCCAAAAGUGGCUUUGAUGUUUCUAUGAUAAGGGUUUCGACCCGUGGCGUCGGGGAUCGCCUGCCCAUUGAAAUGGGCUUCUCCCCAUUUAUU
DNA 1: CACATCTCGAGCAAGACGTT
DNA 2: AACGTCTTGCTCGAGATGTG
B2: SGN001101 sgRNA ; SGN001101 target (ssRNA ; dsDNA)
RNA: AUAUUUUCUUUAAUGGUGCCAGGCAGUCAUAGUUCCAUUAAAGCCAAAAGUGGCUUUGAUGUUUCUAUGAUAAGGGUUUCGACCCGUGGCGUCGGGGAUCGCCUGCCCAUUGAAAUGGGCUUCUCCCCAU
DNA 1: ATATTTTCTTTAATGGTGCCAGGCA
DNA 2: TGCCTGGCACCATTAAAGAAAATAT
B3: SGN000929 sgRNA ; SGN000929 target (ssRNA ; dsDNA)
RNA: AUCUGGAGGGAACUUACAGCAUAUGGUCAUAGUUCCAUGAAAGCCAAAAGUGGCUUUGAUGUUUCUAUGAUAAGGGUUUCGGCCCGUGGCGUCGGGGAUCGCCUGCCCAUUCCGAUGGGCUUCUCCCCAUUUAUU
DNA 1: ATCTGGAGGGAACTTACAGCATATG
DNA 2: CATATGCTGTAAGTTCCCTCCAGAT

Target: T1, APG09980.1-L16-nAPG07433.1 (truncated …)
Assay: cell_activity; HEK293FT; PAM SEQ 152
Details: tags: SV40 NLS, 3xFLAG N-term; nucleoplasmin NLS C-term
Method: 500 ng of plasmid comprising an expression cassette comprising a coding sequence for each fusion protein shown in Table 3 and 500 ng of plasmid comprising an expression cassette encoding an sgRNA shown in Table 4 were co-transfected into HEK293FT cells at 75-90% confluency in 24-well plates using Lipofectamine 2000 reagent (Life Technologies). Cells were then incubated at […] for 72 h. Following incubation, genomic DNA was then extracted using NucleoSpin 96 Tissue (Macherey-Nagel) following the manufacturer's protocol. The genomic region flanking the targeted genomic site was PCR amplified using the primers in Table 4 and products were purified using ZR-96 DNA Clean and Concentrator (Zymo Research) following the manufacturer's protocol. The purified PCR products were then sent for Next Generation Sequencing on Illumina MiSeq (2×250). Results were analyzed for INDEL formation or introduction of % specific cytosine mutations.
The position of each nucleotide in the target sequence was determined. “C17” indicates, for example, a cytosine at position 17 of the target sequence. The position of each nucleotide in the target sequence was determined by numbering the first nucleotide in the target sequence closest to the PAM as position 1, and the position number increases in the 3′ direction away from the PAM sequence.

Binder | activity [% mutated reads]
B1 | 24.1
B2 | 30.5
B3 | 25.9
